Data published in patent US20200317768A1 (published 2020).
Changes are numbered by the printed parent chain. Names and notes keep the numbering of the source.

B1: M103205H795-MY289/M103202L889-SK1 (antibody, human IgG1, kappa)
heavy: QVTLKESGPVLVKPTETLTLTCTVSGIDLSHDDISWVRQAPGKGLEWVGIISYAGSTYYASWAKGRLTISKDTSKNQVVLTMTNMDPVDTATYYCARGVPAYSHGGDLWGQGTLVTVSSASTKGPSVFPLAPSSKSTSGGTAALGCLVKDYFPEPVTVSWNSGALTSGVHTFPAVLQSSGLYSLSSVVTVPSSSLGTQTYICNVNHKPSNTKVDKKVEPKSCDKTHTCPPCPAPELLNGPSVFLFPPKPKDTLMISRTPEVTCVVVDVSHEDPEVKFNWYVDGVEVHNAKTKPREEQYNSTYRVVSVLTVLHQDWLNGKEYKCKVSNKALPKPIEKTISKAKGQPREPQVYTLPPSREEMTKNQVSLTCLVKGFYPSDIAVEWESNGQPENNYKTTPMVLDSDGSFFLYSKLTVDKSRWQQGNVFSCSVMHEALHNHYTQKSLSLSP
light: DIVMTQSPATLSLSPGERATLSCTSSQSVYHANWLSWFQQKPGQPPKLLIYWASTLAYGVPSRFSGSGSGTDFTLTISSLQPEDAATYYCAGGYGGGRYAFGQGTKVEIKRTVAAPSVFIFPPSDEQLKSGTASVVCLLNNFYPREAKVQWKVDNALQSGNSQESVTEQDSKDSTYSLSSTLTLSKADYEKHKVYACEVTHQGLSSPVTKSFNRGEC
notes: Substitutions introduced into M103205H795-SG1; expressed with M103202L889-SK1 as light chain
B2: M103205H795-MY534/M103202L889-SK1 (antibody, human IgG1, kappa)
heavy: B1 heavy with N238T, S241V, H270D, Q297L, M398P
light: B1 light
notes: Substitutions introduced into M103205H795-SG1, expressed with M103202L889-SK1 as light chain; EU numbering
B3: M103205H795-MY330/M103202L889-SK1 (antibody, human IgG1, kappa)
heavy: B1 heavy with L237W, H270E
light: B1 light
notes: as for B1
B4: M103205H795-MY440/M103202L889-SK1 (antibody, human IgG1, kappa)
heavy: B1 heavy with L237W, H270D, Q297L, M398P
light: B1 light
notes: as for B1
B5: M103205H795-MY434/M103202L889-SK1 (antibody, human IgG1, kappa)
heavy: B1 heavy with L237W, H270D, M398P
light: B1 light
notes: as for B1
B6: M103205H795-MY538/M103202L889-SK1 (Table 19: L235W/G236N/H268D/Q295L/K326T/A330K) (antibody, human IgG1, kappa)
heavy: B1 heavy with L237W, H270D, Q297L, K328T, M398P
light: B1 light
notes: also called MY518 (as the text names this set of substitutions)
B7: M103205H795-MY533/M103202L889-SK1 (antibody, human IgG1, kappa)
heavy: B1 heavy with L236W, N238T, S241V, H270D, Q297L, M398P
light: B1 light
notes: as for B2

Columns and labels:
[1] = target: T1, human FcγRIIb extracellular domain, C-terminal His-tag (human, UniProt P31994 43-217); assay: SPR (Biacore), antibody captured, FcgR analyte
T1 construct: also called human FcgRIIb; FcgRIIb
T1 sequence: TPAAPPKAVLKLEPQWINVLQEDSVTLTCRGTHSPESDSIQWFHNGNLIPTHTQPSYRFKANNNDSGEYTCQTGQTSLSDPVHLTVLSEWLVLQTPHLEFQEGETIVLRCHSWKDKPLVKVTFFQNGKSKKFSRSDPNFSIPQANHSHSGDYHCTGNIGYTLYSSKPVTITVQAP

[2] = target: T2, human FcγRIIaR extracellular domain, C-terminal His-tag (human, UniProt P12318 34-217); assay: SPR (Biacore), antibody captured, FcgR analyte
T2 construct: also called human FcγRIIa (type R); FcgRIIaR
T2 chain: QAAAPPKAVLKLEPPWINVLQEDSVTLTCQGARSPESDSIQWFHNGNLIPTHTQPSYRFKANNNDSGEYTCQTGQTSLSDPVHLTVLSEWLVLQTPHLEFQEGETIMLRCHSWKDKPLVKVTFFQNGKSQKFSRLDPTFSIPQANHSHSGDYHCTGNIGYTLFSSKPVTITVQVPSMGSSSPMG

[3] = target: T3, human FcγRIIaH extracellular domain, C-terminal His-tag (human, UniProt P12318 34-217); assay: SPR (Biacore), antibody captured, FcgR analyte
T3 construct: also called human FcγRIIa (type H); FcgRIIaH
T3 sequence: T2 chain with R134H

[4] = target: T4, cynomolgus monkey FcγRIIIaS extracellular domain, C-terminal His-tag (cynomolgus monkey, UniProt Q8SPW2 21-206 at identity 1.00)); assay: SPR (Biacore), antibody captured, FcgR analyte
T4 construct: also called cyno FcγRIIIaS; cynoFcγRIIIaS
T4 chain: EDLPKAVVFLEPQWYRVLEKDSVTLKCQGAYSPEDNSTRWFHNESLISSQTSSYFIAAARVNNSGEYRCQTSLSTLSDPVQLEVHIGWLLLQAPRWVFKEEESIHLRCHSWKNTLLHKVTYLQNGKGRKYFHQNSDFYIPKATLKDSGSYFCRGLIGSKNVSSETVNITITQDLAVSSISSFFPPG

[5] = target: T5, cynomolgus monkey FcγRIIb extracellular domain, C-terminal His-tag (cynomolgus monkey); assay: SPR (Biacore), antibody captured, FcgR analyte
T5 construct: also called cyno FcγRIIb; cynoFcγRIIb
T5 chain: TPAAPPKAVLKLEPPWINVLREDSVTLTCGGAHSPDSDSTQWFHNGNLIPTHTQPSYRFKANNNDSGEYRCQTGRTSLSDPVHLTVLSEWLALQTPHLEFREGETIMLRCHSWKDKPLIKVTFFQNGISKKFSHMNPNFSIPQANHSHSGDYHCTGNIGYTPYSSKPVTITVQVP

[6] = target: T6, human FcγRIIIaV extracellular domain, C-terminal His-tag (human, UniProt P08637 17-208); assay: SPR (Biacore), antibody captured, FcgR analyte
T6 construct: also called human FcgRIIIaV; FcgRIIIaV
T6 sequence (P08637 17-208 F176V): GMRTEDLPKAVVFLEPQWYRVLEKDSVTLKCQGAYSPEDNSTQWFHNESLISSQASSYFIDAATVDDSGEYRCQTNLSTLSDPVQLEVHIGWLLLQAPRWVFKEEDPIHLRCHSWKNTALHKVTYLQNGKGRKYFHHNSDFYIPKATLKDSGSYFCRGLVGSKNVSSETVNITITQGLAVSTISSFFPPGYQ

[7] = target: T7, cynomolgus monkey FcγRIIa1 extracellular domain, C-terminal His-tag (cynomolgus monkey); assay: SPR (Biacore), antibody captured, FcgR analyte
T7 construct: also called cyno FcγRIIa1; cynoFcgRIIa1
T7 chain: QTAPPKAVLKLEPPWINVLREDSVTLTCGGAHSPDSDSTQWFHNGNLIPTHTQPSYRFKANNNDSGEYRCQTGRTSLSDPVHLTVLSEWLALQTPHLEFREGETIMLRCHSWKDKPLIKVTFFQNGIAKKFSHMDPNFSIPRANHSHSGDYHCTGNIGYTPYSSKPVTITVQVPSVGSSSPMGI

[8] = target: T8, cynomolgus monkey FcγRIIa3 extracellular domain, C-terminal His-tag (cynomolgus monkey); assay: SPR (Biacore), antibody captured, FcgR analyte
T8 construct: also called cyno FcγRIIa3; cynoFcgRIIa3
T8 chain: T7 chain with P95T, T121A, A128S, H133P, D135N

[9] = target: T9, cynomolgus monkey FcγRIIa2 extracellular domain, C-terminal His-tag (cynomolgus monkey); assay: SPR (Biacore), antibody captured, FcgR analyte
T9 construct: also called cyno FcγRIIa2; cynoFcgRIIa2
T9 chain: T7 chain with P95T, T121A, I127K, A128S, K130N, D135N, R142Q

[10] = target: T10, cynomolgus monkey FcγRIIa3 extracellular domain with C-terminal His-tag (cynomolgus monkey); assay: SPR (BIACORE), antibody captured, FcgR analyte
T10 construct: also called cyno FcgRIIa3; cynoFcγRIIa3
T10 chain: T7 chain with P95T, T121A, A128S, H133P, D135N
Procedure: (§1) The kinetic analysis of interactions between these antibodies and FcγR was carried out using BIACORE® T200 or BIACORE® 4000 (GE Healthcare). HBS-EP+ (GE Healthcare) was used as the running buffer, and the measurement temperature was set to 25° C. A chip produced by immobilizing Protein A. Protein A/G or mouse anti-human IgG kappa light chain (BD Biosciences) onto a Series S Sensor Chip CM4 or CM5 (GE Healthcare) by the amine-coupling method was used. […] After the measurement, the antibody captured on the chip was washed off by allowing reaction with 10 mM glycine-HCl, pH1.5 and 25 mM NaOH so that the chip was regenerated and used repeatedly. The sensorgrams obtained as measurement results were analyzed by the 1:1 Langmuir binding model using the BIACORE® Evaluation Software to calculate the binding rate constant ka (L/mol/s) and dissociation rate constant kd (l/s), and the dissociation constant KD (mol/L) was calculated from these values. […] Regarding such interactions, KD values were calculated using the following 1:1 binding model described in BIACORE® T100 Software Handbook BR1006-48 Edition AE.
(§2) The behavior of interacting molecules according to the 1:1 binding model on BIACORE® can be described by Equation 1: Req=C·R max/(KD+C)+RI, wherein, Req is a plot of steady-state binding levels to analyte concentration. C is concentration, RI is bulk refractive index contribution in the sample, and Rmax is analyte binding capacity of the surface. When this equation is rearranged, KD can be expressed as Equation 2: KD=C·Rmax/(Req−RI)−C. KD can be calculated by substituting the values of Rmax, RI, and C into Equation 1 or Equation 2. From the current measurement conditions, RI=0, C=2 μmol/L can be used.

[11] = target: T11, human FcγRIIaR extracellular domain with C-terminal His-tag (human, UniProt P12318 34-217); assay: SPR (BIACORE), antibody captured, FcgR analyte
T11 construct: also called human FcgRIIaR; FcγRIIa (type R)
T11 chain: T2 chain
Procedure: as §1, §2

[12] = target: T12, cynomolgus monkey FcγRIIa1 extracellular domain with C-terminal His-tag (cynomolgus monkey); assay: SPR (BIACORE), antibody captured, FcgR analyte
T12 construct: also called cyno FcgRIIa1; cynoFcγRIIa1
T12 chain: T7 chain
Procedure: as §1, §2

[13] = target: T13, human FcγRIIaH extracellular domain with C-terminal His-tag (human, UniProt P12318 34-217); assay: SPR (BIACORE), antibody captured, FcgR analyte
T13 construct: also called human FcgRIIaH; FcγRIIa (type H)
T13 sequence: T2 chain with R134H
Procedure: as §1, §2

[14] = target: T14, cynomolgus monkey FcγRIIa2 extracellular domain with C-terminal His-tag (cynomolgus monkey); assay: SPR (BIACORE), antibody captured, FcgR analyte
T14 construct: also called cyno FcgRIIa2; cynoFcγRIIa2
T14 chain: T7 chain with P95T, T121A, I127K, A128S, K130N, D135N, R142Q
Procedure: as §1, §2

[15] = target: T15, human FcγRIIb extracellular domain with C-terminal His-tag (human, UniProt P31994 43-217); assay: SPR (BIACORE), antibody captured, FcgR analyte
T15 construct: also called human FcgRIIb
T15 sequence: T1 sequence
Procedure: as §1, §2

[16] = target: T16, cynomolgus monkey FcγRIIb extracellular domain with C-terminal His-tag (cynomolgus monkey); assay: SPR (BIACORE), antibody captured, FcgR analyte
T16 construct: also called cyno FcgRIIb; cynoFcγRIIb
T16 chain: T5 chain
Procedure: as §1, §2

[17] = target: T17, cynomolgus monkey FcγRIIIaS extracellular domain with C-terminal His-tag (cynomolgus monkey, UniProt Q8SPW2 21-206 at identity 1.00)); assay: SPR (BIACORE), antibody captured, FcgR analyte
T17 construct: also called cyno FcgRIIIaS; cynoFcγRIIIaS
T17 chain: T4 chain
Procedure: as §1, §2

[18] = target: T18, human FcγRIIIaV extracellular domain with C-terminal His-tag (human, UniProt P08637 17-208); assay: SPR (BIACORE), antibody captured, FcgR analyte
T18 construct: also called human FcgRIIIaV
T18 sequence (P08637 17-208 F176V): as the sequence (P08637 17-208 F176V) above
Procedure: as §1, §2

Row | Binder | Kd [1] | Kd [2] | Kd [3] | Kd [4] | Kd [5] | Kd [6] | Kd [7] | Kd [8] | Kd [9] | Kd [10] | Kd [11] | Kd [12] | Kd [13] | Kd [14] | Kd [15] | Kd [16] | Kd [17] | Kd [18]
1 | B1 | 2900 nM | 5500 nM | 830 nM | 5200 nM | 740 nM | 7700 nM | 1300 nM | 86000 nM | 1500 nM |  |  |  |  |  |  |  |  | 
2 | B2 |  |  |  |  |  |  |  |  |  | 1200 nM | 190 nM | 1300 nM | 170 nM | 1300 nM | 120 nM | 420 nM | 1700 nM | 4300 nM
3 | B3 | 670 nM | 900 nM | 960 nM | 6600 nM | 610 nM | 12000 nM | 2200 nM | 4700 nM | 2200 nM |  |  |  |  |  |  |  |  | 
4 | B4 | 800 nM | 11000 nM | 910 nM | 9300 nM | 460 nM | 27000 nM | 1600 nM | 48000 nM | 1800 nM |  |  |  |  |  |  |  |  | 
5 | B5 | 1400 nM | 1900 nM | 16000 nM | 11000 nM | 740 nM | 16000 nM | 2900 nM | 64000 nM | 2400 nM |  |  |  |  |  |  |  |  | 
6 | B6 | 480 nM | 670 nM | 850 nM | 4200 nM | 260 nM | 23000 nM | 890 nM | 2400 nM | 900 nM |  |  |  |  |  |  |  |  | 
7 | B7 |  |  |  |  |  |  |  |  |  | 1200 nM | 200 nM | 800 nM | 210 nM | 730 nM | 950 nM | 250 nM | 1100 nM | 1800 nM
